The target in experiment [1] is HLA-A0201 MHC class I molecule on T2 cells (human (endogenous in T2) | human). Description: flow cytometry on cells; T2 cells treated with 1 uM biotinylated peptide for 16 hours, no UV; peptide on the cell surface stained with anti-biotin AlexaFluor 488 antibody.
For experiment [2] the target is unchanged. The experiment in a line: flow cytometry on cells; T2 cells treated with 1 uM biotinylated peptide for 16 hours, then exposed to UV light; peptide on the cell surface stained with anti-biotin AlexaFluor 488 antibody. (Flow cytometry measures light scatter and fluorescence of single cells or particles in a stream.)
For experiment [3] the target is unchanged. The experiment in a line: flow cytometry on cells; internalization study (pulse-chase): T2 cells with 1 uM biotinylated peptide for 2 hr at 37 degrees, washed twice, incubated a further 4 or 22 hours; surface peptide by anti-biotin staining.
For experiment [4] the target is unchanged. Description: flow cytometry on cells; internalization study: T2 cells with 1 uM biotinylated peptide at 37 degrees, peptide left on; surface peptide by anti-biotin staining at 2, 6 and 24 h.

Square brackets hold non-standard residues; d marks the D form. Side chains are listed from the residue outwards. Ends that are not written are not given here. * marks the point of attachment. Biotin = O=C1N[C@H]2[C@H](CS[C@H]2CCCCC(=O)*)N1; Bpa = N[C@@H](Cc1ccc(C(=O)c2ccccc2)cc1)C(=O)O; PEG linker = not defined here

[Bpa]LGEQ([PEG linker-Biotin])QYSV (reading uncertain) [WT1B-S1Fbz-bio]: in experiment [1], the mean fluorescence (anti-biotin) was 41.5. Besides, the mean fluorescence (anti-biotin) in experiment [2] came to 43.2. In addition, the mean fluorescence (anti-biotin) at 6 h, washed after 2 h in experiment [3] amounted to 6.69. In experiment [4], this molecule gave a mean fluorescence (anti-biotin) at 2 h of 8.74, a mean fluorescence (anti-biotin) at 6 h of 44.4 and a mean fluorescence (anti-biotin) at 24 h of 23.4.

For the origin of these results see publication PMC2592539.
